Results from the supplement of paper PMC7877785.
± gives the uncertainty stated by the source.

Assay: self-splicing fitness, log relative to wild type (ln ratio); higher = more splicing; Tetrahymena group I intron in knt gene, E. coli kanamycin selection, DiMSum; sequences stand for … in CUCUCU…GGAGGGAAAAGUUAUCAGGCAUGCACCUGGUAGCUAGUCUUUAAACCAAUAGAUUGCAUCGGUUUAAAAGGCAAGACCGUCAAAUUGCGGGAAAGGGGUCAACAGCCGUUCAGUACCAAGUCUCAGGGGAAACUUUGAGAUGGCCUUGCAAAGGGUAUGGUAAUAAGCUGACGGACAUGGUCCUAACCACGCAGCCAAGUCCUAAGUCAACAGAUCUUCUGUUGAUAUGGAUGCAGUUCACAGACUAAAUGUCGGUCGGGGAAGAUGUAUUCUUCUCAUAAGAUAUAGUCGGACCUCUCCUUAAUGGGAGCUAGCGGAUGAAGUGAUGCAACACUGGAGCCGCUGGGAACUAAUUUGUAUGCGAAAGUAUAUUGAUUAGUUUUGGAGUACUCGUGGUCG
In short: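 The eight P1ex-region nucleotides of an intron in the knt kanamycin-resistance gene on pET-22b(+) were all randomised and the library put into E. coli BL21(DE3). Six replicate transformations were grown overnight at 37°C or 30°C on LB agar with or without 25 μg/mL kanamycin, together with 100 μg/mL carbenicillin, 50 μM IPTG and 0.2% rhamnose. Colonies were pooled and amplicon-sequenced on an Illumina HiSeq 2500. Fitness from DiMSum is the error-weighted combination of wild-type-normalised replicate fold changes, kanamycin over none.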

Row | Sequence | self-splicing fitness (ln) (30 °C) | self-splicing fitness (ln) (37 °C)
1 | GUAAAGCAAUAUUACGUGUC | -1.85 ± 0.06 | -1.14 ± 0.079
2 | GUAAAGCAAUAUUACGUUCU | -0.888 ± 0.05 | -0.135 ± 0.071
3 | GUACAGCAAUAUUACGACAC | -0.333 ± 0.099 | 0.291 ± 0.11
4 | GUACAGCAAUAUUACGACGA | -1.54 ± 0.14 | -1.07 ± 0.12
5 | GUACAGCAAUAUUACGAGCU | -2.18 ± 0.15 | -1.51 ± 0.15
6 | GUACAGCAAUAUUACGAUUU | -1.28 ± 0.11 | -0.49 ± 0.089
7 | GUACAGCAAUAUUACGCAGC | -2.41 ± 0.17 | -2.33 ± 0.23
8 | GUACAGCAAUAUUACGCGUA | -3.44 ± 0.32 | -1.71 ± 0.24
9 | GUACAGCAAUAUUACGCUGG | -2.55 ± 0.13 | -0.491 ± 0.12
10 | GUACAGCAAUAUUACGGAGA | -3.87 ± 0.35 | -2.81 ± 0.21
11 | GUACAGCAAUAUUACGGCCA | -0.539 ± 0.17 | -1.13 ± 0.17
12 | GUACAGCAAUAUUACGGCUC | 0.189 ± 0.083 | 1.05 ± 0.097
13 | GUACAGCAAUAUUACGGCUU | -0.512 ± 0.08 | 0.22 ± 0.09
14 | GUACAGCAAUAUUACGGUAG | -1.31 ± 0.062 | -0.303 ± 0.068
15 | GUAGAGCAAUAUUACGAAGC | -2.62 ± 0.24 | -0.723 ± 0.26
16 | GUAGAGCAAUAUUACGAGCA | -0.443 ± 0.17 | -0.601 ± 0.22
17 | GUAGAGCAAUAUUACGAGUC | -2.19 ± 0.17 | -1.47 ± 0.24
18 | GUAGAGCAAUAUUACGAGUU | -2.39 ± 0.2 | -1.85 ± 0.2
19 | GUAGAGCAAUAUUACGCAUG | -1.94 ± 0.13 | -0.699 ± 0.19
20 | GUAGAGCAAUAUUACGCCCA | -1.56 ± 0.2 | -0.471 ± 0.25
21 | GUAGAGCAAUAUUACGCCCC | -1.39 ± 0.19 | -0.63 ± 0.28
22 | GUAGAGCAAUAUUACGCCUG | -1.21 ± 0.31 | -0.594 ± 0.32
23 | GUAGAGCAAUAUUACGCGGC | -3.37 ± 0.2 | -2.07 ± 0.18
24 | GUAGAGCAAUAUUACGCGUU | -0.368 ± 0.065 | -0.909 ± 0.11

Row | Sequence | self-splicing fitness (ln) (30 °C) | self-splicing fitness (ln) (37 °C)
25 | GUAGAGCAAUAUUACGCUGU | -1.88 ± 0.2 | -0.607 ± 0.22
26 | GUAGAGCAAUAUUACGGGCA | -1.69 ± 0.15 | -0.35 ± 0.21
27 | GUAGAGCAAUAUUACGGGUU | -4.13 ± 0.3 | -2.15 ± 0.22
28 | GUAGAGCAAUAUUACGUAAU | -2.04 ± 0.13 | -0.878 ± 0.12
29 | GUAGAGCAAUAUUACGUAGC | -1.16 ± 0.19 | 
30 | GUAUAGCAAUAUUACGAGAU | -3 ± 0.29 | -1.22 ± 0.22
31 | GUAUAGCAAUAUUACGAUCU | -1.16 ± 0.19 | 0.209 ± 0.21
32 | GUAUAGCAAUAUUACGAUGU | -1.07 ± 0.12 | -0.00633 ± 0.17
33 | GUAUAGCAAUAUUACGAUUU | -1.63 ± 0.11 | 0.247 ± 0.13
34 | GUAUAGCAAUAUUACGCAAA | -3.07 ± 0.29 | -1.7 ± 0.25
35 | GUAUAGCAAUAUUACGCACU | -1.9 ± 0.16 | -0.384 ± 0.14
36 | GUAUAGCAAUAUUACGCCCC | -1.21 ± 0.2 | -0.594 ± 0.29
37 | GUAUAGCAAUAUUACGCCCU | -0.766 ± 0.2 | 0.0529 ± 0.26
38 | GUAUAGCAAUAUUACGCUCU | -1.76 ± 0.13 | -1.23 ± 0.15
39 | GUAUAGCAAUAUUACGGAAG |  | -1.92 ± 0.27
40 | GUAUAGCAAUAUUACGGCGC | -0.053 ± 0.11 | -0.157 ± 0.12
41 | GUAUAGCAAUAUUACGGCGU | -0.696 ± 0.13 | 0.267 ± 0.19
42 | GUAUAGCAAUAUUACGGCUG | -1.2 ± 0.079 | -0.532 ± 0.097
43 | GUAUAGCAAUAUUACGUAUG | -3.06 ± 0.15 | -1.93 ± 0.15
44 | GUAUAGCAAUAUUACGUCAC | -3 ± 0.29 | -1.7 ± 0.26
45 | GUAUAGCAAUAUUACGUCUA | -0.881 ± 0.17 | -1.01 ± 0.18
46 | GUAUAGCAAUAUUACGUGGA | -3.62 ± 0.28 | -2.23 ± 0.18
47 | GUAUAGCAAUAUUACGUUAG | -2.87 ± 0.21 | -1.07 ± 0.22
48 | GUAUAGCAAUAUUACGUUGC | -2.83 ± 0.26 | 

Row | Sequence | self-splicing fitness (ln) (30 °C) | self-splicing fitness (ln) (37 °C)
49 | GUCAAGCAAUAUUACGAACU | -2.42 ± 0.11 | -1.38 ± 0.12
50 | GUCAAGCAAUAUUACGAAGC | -3.84 ± 0.27 | -2.54 ± 0.2
51 | GUCAAGCAAUAUUACGACAG | -4.39 ± 0.33 | -2.93 ± 0.33
52 | GUCAAGCAAUAUUACGACAU | -1.673 ± 0.012 | -0.579 ± 0.032
53 | GUCAAGCAAUAUUACGAGAA | -3.59 ± 0.36 | -1.83 ± 0.2
54 | GUCAAGCAAUAUUACGAGCU | -3.49 ± 0.17 | -1.85 ± 0.15
55 | GUCAAGCAAUAUUACGAUAC | -3.1 ± 0.14 | -1.16 ± 0.09
56 | GUCAAGCAAUAUUACGAUAU | -1.28 ± 0.07 | -0.525 ± 0.078
57 | GUCAAGCAAUAUUACGAUGG | -4.88 ± 0.38 | -3.68 ± 0.27
58 | GUCAAGCAAUAUUACGCAUA | -1.58 ± 0.063 | -0.367 ± 0.06
59 | GUCAAGCAAUAUUACGCCUC | -1.25 ± 0.25 | 0.644 ± 0.41
60 | GUCAAGCAAUAUUACGCUUA | -2.07 ± 0.14 | -0.67 ± 0.12
61 | GUCAAGCAAUAUUACGGAGA | -3.61 ± 0.26 | -3.41 ± 0.39
62 | GUCAAGCAAUAUUACGGAUC | -2.77 ± 0.1 | -1.09 ± 0.093
63 | GUCAAGCAAUAUUACGGCAC | -1.35 ± 0.16 | 0.15 ± 0.22
64 | GUCAAGCAAUAUUACGUAUC | -2.71 ± 0.2 | -0.284 ± 0.16
65 | GUCAAGCAAUAUUACGUCUG | -3.64 ± 0.28 | -0.0416 ± 0.085
66 | GUCCAGCAAUAUUACGAACG | -1.52 ± 0.13 | -0.855 ± 0.16
67 | GUCCAGCAAUAUUACGAACU | -1.37 ± 0.074 | -0.292 ± 0.081
68 | GUCCAGCAAUAUUACGACUA | -1.52 ± 0.11 | -0.869 ± 0.11
69 | GUCCAGCAAUAUUACGACUG | -4.63 ± 0.39 | -1.86 ± 0.22
70 | GUCCAGCAAUAUUACGAGUA | -2.36 ± 0.16 | -0.787 ± 0.12
71 | GUCCAGCAAUAUUACGAUAG | -3.53 ± 0.14 | -2.89 ± 0.17
72 | GUCCAGCAAUAUUACGAUUG | -3.41 ± 0.17 | -3.17 ± 0.24

Row | Sequence | self-splicing fitness (ln) (30 °C) | self-splicing fitness (ln) (37 °C)
73 | GUCCAGCAAUAUUACGCAGU | -0.463 ± 0.046 | -0.161 ± 0.058
74 | GUCCAGCAAUAUUACGCAUA | -0.663 ± 0.091 | -0.0806 ± 0.094
75 | GUCCAGCAAUAUUACGGACA | -2.84 ± 0.26 | -1.67 ± 0.18
76 | GUCCAGCAAUAUUACGGAGU | -0.181 ± 0.063 | -0.404 ± 0.084
77 | GUCCAGCAAUAUUACGGGUA | -0.764 ± 0.061 | 0.14 ± 0.066
78 | GUCCAGCAAUAUUACGGUGU | -0.42 ± 0.066 | 0.833 ± 0.081
79 | GUCCAGCAAUAUUACGUAAC | -0.291 ± 0.073 | -0.649 ± 0.095
80 | GUCCAGCAAUAUUACGUAUA | -1.37 ± 0.073 | -0.787 ± 0.073
81 | GUCCAGCAAUAUUACGUAUU | -0.819 ± 0.078 | -0.174 ± 0.09
82 | GUCCAGCAAUAUUACGUGUA | -0.96 ± 0.073 | 0.159 ± 0.077
83 | GUCCAGCAAUAUUACGUUCA | -0.971 ± 0.088 | 0.797 ± 0.087
84 | GUCGAGCAAUAUUACGAAGU | -1.31 ± 0.33 | -1.65 ± 0.4
85 | GUCGAGCAAUAUUACGACGU | -0.827 ± 0.19 | -0.341 ± 0.16
86 | GUCGAGCAAUAUUACGACUC | -2.05 ± 0.32 | -1.15 ± 0.36
87 | GUCGAGCAAUAUUACGAGCC | -3.81 ± 0.47 | 
88 | GUCGAGCAAUAUUACGAUCG | -3.65 ± 0.23 | -1.38 ± 0.18
89 | GUCGAGCAAUAUUACGAUUA | 0.373 ± 0.19 | -0.944 ± 0.2
90 | GUCGAGCAAUAUUACGCAAC | -1.92 ± 0.33 | -0.123 ± 0.22
91 | GUCGAGCAAUAUUACGCAGA | -2.79 ± 0.32 | -1.61 ± 0.39
92 | GUCGAGCAAUAUUACGCAGU | -2.71 ± 0.17 | -1.17 ± 0.14
93 | GUCGAGCAAUAUUACGCUGU | -1.73 ± 0.13 | -1.62 ± 0.2
94 | GUCGAGCAAUAUUACGCUUC | -5.12 ± 0.38 | -4.17 ± 0.33
95 | GUCGAGCAAUAUUACGGCCU | -2.83 ± 0.34 | 
96 | GUCGAGCAAUAUUACGGCGA | -3.05 ± 0.21 | -1.9 ± 0.25
